According to the supplement of paper PMC10126150:
± gives the standard deviation of the averaged measurements.

Test system: ATP
Assay: switch fluorescence ratio, 500 uM ATP over buffer (Cy3 cluster intensity, sum of 5 cycles each) (fold (ratio)); higher = stronger signal-on switching upon ATP binding; sequences stand for … in TCGTCGGCAGCGTCAGATGTGTATAAGAGACAGTTTTTTTTTTTTTTTTTTTTTTTTT…TC
Details: aptamer strand: ATP DNA aptamer (quencher-CACCTGGGGGAGTATTGCGGAGGAAGG + anchor), 100 nM annealed; ATP concentration: 500 uM
Method in brief: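 The quencher-labelled ATP aptamer, at 100 nM, was annealed to Cy3-labelled switching-strand clusters on a modified Illumina MiSeq flow-cell. The clusters were imaged in selection buffer, then after 15 min with 500 uM ATP at 22 °C, and this buffer/ATP cycle ran five times with NaOH stripping and re-annealing between runs. Per-cluster fluorescence ratios, summed target-cycle over summed buffer-cycle Cy3 intensity, were averaged per switch-domain sequence. Clusters outside 100-1000 RFU were excluded.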
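Also: ATP exposure 15 min at 22 °C before imaging.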

| Sequence | switch fluorescence ratio |
| --- | --- |
| AGTTACGGTG | 1 ± 0.025 |
| AGTTAGCAGA | 0.995 ± 0.026 |
| AGTTAGGGTA | 0.9744 ± 0.0059 |
| AGTTAGTGGA | 0.9924 ± 0.00044 |
| AGTTATCCAT | 1.001 ± 0.0083 |
| AGTTATTTGA | 1 ± 0.031 |
| AGTTATTTGC | 0.997 ± 0.024 |
| AGTTCAAACC | 1.04 ± 0.062 |
| AGTTCATATA | 1.013 ± 0.0011 |
| AGTTCCCCTT | 1.052 ± 0.0024 |
| AGTTCCGGGA | 1.02 ± 0.067 |
| AGTTCCGTTT | 0.994 ± 0.022 |
| AGTTCCTTAG | 1.05 ± 0.043 |
| AGTTCGCTTT | 0.993 ± 0.028 |
| AGTTCGGATG | 1 ± 0.057 |
| AGTTCTTTGT | 0.985 ± 0.024 |
| AGTTGAAATA | 0.9816 ± 0.0066 |
| AGTTGAATTT | 0.9885 ± 0.0016 |
| AGTTGAGAG | 1.03 ± 0.017 |
| AGTTGAGTCT | 0.981 ± 0.067 |
| AGTTGAGTTA | 1 ± 0.011 |
| AGTTGATGGT | 0.96898 ± 0.00096 |
| AGTTGGATGC | 0.965 ± 0.068 |
| AGTTGGCTGA | 0.9967 ± 0.0063 |
| AGTTGGGAGC | 0.991 ± 0.02 |

| Sequence | switch fluorescence ratio |
| --- | --- |
| AGTTGGGTGG | 1.04 ± 0.026 |
| AGTTGGTAG | 1.02 ± 0.033 |
| AGTTGGTGTT | 0.958 ± 0.026 |
| AGTTGTAAAG | 0.985 ± 0.018 |
| AGTTGTCAGT | 0.983 ± 0.028 |
| AGTTGTCCAT | 0.9767 ± 0.0079 |
| AGTTGTGGTA | 1.003 ± 0.01 |
| AGTTGTGTTT | 0.966 ± 0.043 |
| AGTTGTTGG | 0.982 ± 0.011 |
| AGTTTAAAAG | 1.01 ± 0.024 |
| AGTTTACCGG | 1.01 ± 0.022 |
| AGTTTAGATG | 0.968 ± 0.02 |
| AGTTTAGGAC | 0.985 ± 0.031 |
| AGTTTATTGG | 0.999 ± 0.0086 |
| AGTTTCCTTT | 0.978 ± 0.032 |
| AGTTTCGGGT | 0.9636 ± 0.0082 |
| AGTTTCGGTA | 0.977 ± 0.018 |
| AGTTTCTTAT | 0.995 ± 0.028 |
| AGTTTCTTGT | 0.987 ± 0.03 |
| AGTTTGAAAT | 1.01 ± 0.03 |
| AGTTTGAGTT | 1.02 ± 0.052 |
| AGTTTGATG | 0.986 ± 0.041 |
| AGTTTGGGC | 0.9604 ± 0.0015 |
| AGTTTGGTGG | 0.942 ± 0.067 |
| AGTTTGTCCC | 1.02 ± 0.0057 |

| Sequence | switch fluorescence ratio |
| --- | --- |
| AGTTTGTGAC | 0.989 ± 0.029 |
| AGTTTGTGTC | 0.965 ± 0.12 |
| AGTTTGTTTT | 0.966 ± 0.049 |
| AGTTTTAGAT | 1 ± 0.044 |
| AGTTTTATTG | 0.993 ± 0.026 |
| AGTTTTCATT | 1 ± 0.049 |
| AGTTTTCTTC | 0.962 ± 0.041 |
| AGTTTTGACC | 1.03 ± 0.059 |
| AGTTTTGGAG | 1 ± 0.015 |
| AGTTTTGGTA | 1.02 ± 0.064 |
| AGTTTTGGTG | 0.985 ± 0.01 |
| AGTTTTGTGT | 0.972 ± 0.0098 |
| AGTTTTTTTG | 0.99 ± 0.017 |
| ATAAAAAACT | 0.984 ± 0.01 |
| ATAAAAAATA | 1 ± 0.025 |
| ATAAAAATAT | 1.01 ± 0.035 |
| ATAAAAATGG | 1.004 ± 0.0075 |
| ATAAAAATTT | 1 ± 0.024 |
| ATAAAAGGAT | 0.973 ± 0.014 |
| ATAAAATAAT | 0.977 ± 0.048 |
| ATAAACAAAG | 0.959 ± 0.015 |
| ATAAACCTTA | 1.29 ± 0.28 |
| ATAAAGAATG | 1.01 ± 0.05 |
| ATAAAGCTCT | 1.01 ± 0.019 |
| ATAAAGGGGA | 0.984 ± 0.038 |

| Sequence | switch fluorescence ratio |
| --- | --- |
| ATAAATTTGC | 0.968 ± 0.045 |
| ATAACAGAGG | 1.04 ± 0.013 |
| ATAACATGAC | 1.21 ± 0.0044 |
| ATAACGGAGT | 0.9902 ± 0.0087 |
| ATAACGTCGG | 0.9867 ± 0.0082 |
| ATAACGTTGA | 0.99 ± 0.017 |
| ATAAGATTGT | 0.963 ± 0.058 |
| ATAAGCTTCT | 1.09 ± 0.073 |
| ATAAGGGAGA | 1 ± 0.037 |
| ATAAGGGCCA | 1.01 ± 0.036 |
| ATAAGGGTAA | 1 ± 0.013 |
| ATAAGTCAAA | 0.99 ± 0.016 |
| ATAAGTGGTG | 0.976 ± 0.036 |
| ATAAGTTCCG | 0.996 ± 0.028 |
| ATAAGTTTTG | 0.978 ± 0.027 |
| ATAATAAGCT | 1.016 ± 0.0073 |
| ATAATAGAAT | 0.993 ± 0.025 |
| ATAATAGAGT | 1.02 ± 0.024 |
| ATAATAGGG | 0.9773 ± 0.0019 |
| ATAATATAGG | 0.99 ± 0.041 |
| ATAATATGTG | 0.997 ± 0.029 |
| ATAATATTTT | 1.031 ± 0.0028 |
| ATAATGGTTG | 1.04 ± 0.043 |
| ATAATTACTT | 1.01 ± 0.018 |
| ATAATTATA | 1.01 ± 0.018 |

| Sequence | switch fluorescence ratio |
| --- | --- |
| ATAATTTCTG | 0.99 ± 0.016 |
| ATACAAATTT | 0.995 ± 0.047 |
| ATACAAGTAT | 0.995 ± 0.025 |
| ATACACATCC | 1.06 ± 0.061 |
| ATACCGAGGA | 1.04 ± 0.051 |
| ATACGAAGGG | 0.985 ± 0.059 |
| ATACGGACGG | 1.4 ± 0.073 |
| ATACGGGGGT | 1.005 ± 0.0076 |
| ATACGTTGG | 0.9748 ± 0.0046 |
| ATACGTTTGG | 1.01 ± 0.054 |
| ATACTATGGT | 0.989 ± 0.038 |
| ATACTCAGCC | 1.14 ± 0.041 |
| ATACTGTTGA | 0.973 ± 0.013 |
| ATACTTGAAC | 1.034 ± 0.0012 |
| ATAGAAAACT | 1.4 ± 0.53 |
| ATAGAACGGG | 1.01 ± 0.025 |
| ATAGAACTTT | 0.9968 ± 0.0095 |
| ATAGAATAGA | 0.985 ± 0.02 |
| ATAGACAGTG | 1.02 ± 0.13 |
| ATAGACGTAT | 1.01 ± 0.011 |
| ATAGACGTTA | 1.07 ± 0.049 |
| ATAGAGAGAG | 1.02 ± 0.014 |
| ATAGAGCTTG | 0.997 ± 0.024 |
| ATAGAGGCAC | 1.09 ± 0.099 |
| ATAGAGTTAG | 0.982 ± 0.011 |

| Sequence | switch fluorescence ratio |
| --- | --- |
| ATAGATGCTT | 1.002 ± 0.003 |
| ATAGATGTCT | 0.992 ± 0.019 |
| ATAGATTCTC | 0.977 ± 0.025 |
| ATAGCATGTA | 0.991 ± 0.01 |
| ATAGCGAGGA | 1.05 ± 0.034 |
| ATAGCGGACA | 0.967 ± 0.033 |
| ATAGCTAGTG | 0.973 ± 0.013 |
| ATAGCTGATT | 0.983 ± 0.034 |
| ATAGCTTGAG | 1.01 ± 0.04 |
| ATAGGAACTT | 1.02 ± 0.013 |
| ATAGGAGCAG | 1.01 ± 0.048 |
| ATAGGAGTCG | 1 ± 0.02 |
| ATAGGAGTTA | 0.9814 ± 0.0071 |
| ATAGGAGTTC | 1.03 ± 0.023 |
| ATAGGATTGC | 0.982 ± 0.011 |
| ATAGGATTTG | 1.032 ± 0.0096 |
| ATAGGATTTT | 0.985 ± 0.034 |
| ATAGGCACGG | 1 ± 0.04 |
| ATAGGCCGTA | 1.03 ± 0.045 |
| ATAGGCGCGG | 1.01 ± 0.02 |
| ATAGGCGGAA | 1.02 ± 0.036 |
| ATAGGGAATT | 1 ± 0.024 |
| ATAGGGGAAT | 0.9872 ± 0.0072 |
| ATAGGGGATT | 1 ± 0.038 |
| ATAGGGGGAG | 1 ± 0.033 |

| Sequence | switch fluorescence ratio |
| --- | --- |
| ATAGGGGGCT | 0.9892 ± 0.0096 |
| ATAGGGGGTT | 0.98 ± 0.022 |
| ATAGGGGTTT | 1.013 ± 0.0055 |
| ATAGGGTATA | 0.981 ± 0.055 |
| ATAGGGTGTG | 1.02 ± 0.076 |
| ATAGGTGTTG | 1.02 ± 0.025 |
| ATAGTACGCG | 0.992 ± 0.03 |
| ATAGTAGTCA | 1.01 ± 0.024 |
| ATAGTCAAAG | 0.998 ± 0.034 |
| ATAGTGACGT | 0.9826 ± 0.0075 |
| ATAGTGATAC | 3.28 ± 0.057 |
| ATAGTGGTGA | 1.03 ± 0.048 |
| ATAGTGTGGT | 0.986 ± 0.083 |
| ATAGTGTTGG | 0.986 ± 0.029 |
| ATAGTTATGT | 1.0153 ± 0.00095 |
| ATAGTTATTG | 1.01 ± 0.022 |
| ATAGTTCCAG | 1.002 ± 0.0087 |
| ATAGTTCCAT | 0.9783 ± 0.005 |
| ATAGTTCTAA | 0.9939 ± 0.0048 |
| ATAGTTCTAC | 0.987 ± 0.0074 |
| ATAGTTGGAT | 0.98 ± 0.011 |
| ATAGTTTGAC | 1.008 ± 0.0015 |
| ATATAAAAAA | 1.01 ± 0.026 |
| ATATAAGAAA | 1.03 ± 0.041 |
| ATATAAGAGC | 1.03 ± 0.02 |

| Sequence | switch fluorescence ratio |
| --- | --- |
| ATATAATAGG | 0.9778 ± 0.0022 |
| ATATACTATG | 1.05 ± 0.026 |
| ATATAGACGG | 0.975 ± 0.024 |
| ATATAGATTG | 1.03 ± 0.038 |
| ATATAGGCTA | 0.995 ± 0.011 |
| ATATAGGGGA | 1.02 ± 0.051 |
| ATATAGTGTA | 0.99 ± 0.029 |
| ATATATAAAT | 0.978 ± 0.033 |
| ATATATGCAG | 0.986 ± 0.018 |
| ATATATGGGG | 0.987 ± 0.045 |
| ATATCCCTGT | 1.009 ± 0.0049 |
| ATATCGAGGC | 0.9803 ± 0.0089 |
| ATATCGAGTT | 0.9894 ± 0.00022 |
| ATATCGGCGT | 1.55 ± 0.82 |
| ATATCTAGCC | 0.9611 ± 0.0042 |
| ATATCTTATG | 0.964 ± 0.023 |
| ATATGAATAG | 1.01 ± 0.018 |
| ATATGAGCAG | 1.02 ± 0.024 |
| ATATGATGTG | 1.01 ± 0.03 |
| ATATGCCCTA | 0.9674 ± 0.0077 |
| ATATGGATAC | 1.05 ± 0.045 |
| ATATGGATGA | 0.96 ± 0.03 |
| ATATGGATTG | 1 ± 0.015 |
| ATATGGCACG | 1.032 ± 0.0014 |
| ATATGGGAAA | 0.978 ± 0.025 |
